# In the DeepSol protein solubility set:
# Assay: soluble on expression in E. coli; label from the status in PepcDB or PDB records
row,Sequence,soluble on expression in E. coli
1,MGSDKIHHHHHHMKKEKVEERIREILRPGWDLLTEEAMLYSATVGGKRIRPLLVLTLGEDLGVEEEKLLDVAVAVELFHTASLIHDDLPPIDNADFRRGKPSCHRTYGEDIALLAGDGLFFLAFSQISKIGNSKIFEEFSETAYKLLLGEAMDVEFERRKMEVSQEMVERMYAFKTGALFAFCFSAPFILKGKDHTKMKLLGEKFGVAFQIYDDLKDILGSFEKVGKDLGKDTEKVTLVKKVGIQKAREMADKYYEEVLKGIESEGLFRTLFLLKELKQMVEER,soluble
2,MGSDKIHHHHHHMKLLCSLASPYARCVRSLIRYLGIEDIEEVLVNPMENTAQLLDVNPLGQIPCLITNDGVPIFDSEVIMRYLDTELGAQEMFGGQPYNWVLQCQYSMIKGLIDSAVKLRQEQMREEEGVRSAFWTSRFEQALLRGLMQMEHQSVITQTTIQAPQLTLICLLDYVDFRHPELDWRKVAPATAIWFSEMRDLPAFVETRPQ,not soluble
3,MTKMLKLFDAHFHIIDYRFPLITNQSYLPPEFTVEDYLQRAKPLNICGGAVVSGSFQAFDQSYLLAALSILGSDFVGVTQLPATVSDEEIIQLNQKGIRAVRFNVKRGGSENIHRLKYFAHRIYEMVRWHVEIYVDSKDLGDLTSLLLELPAVSIDHLGLSHSGFSQLLHLVEHGIKIKASGFGRVDFDVKKALQTIAQINPDALLFGTDLPSTRAPRPFLDSDIQIIQDLFDEKLTEKILYRNARNFYSKNSSELEHHHHHH,not soluble
4,MGSDKIHHHHHHMLSRTASELYWMARYLERAESLARVLDVTYKLSMMPRHSQQQHDLALPLNLTMTHELFQQRYAHFSMNNLLNFFALDSENPSSIYNCIEMAWNNAHAVRGSLSSEVWECINTTRIDIRNLRHQGVDNIGINEFFDWVKERSHLFRGAMFGTLLRNDAQCFIRIGTLIERACATAQLLNVKHQQLHNDPDPVREYYRLDTLLRAVSAREAYHSIYRQPISPETVTELLVLREDVPRSLHACVGDLVLQLEAIGSQRAKVPHRLAHLLHVELRFSTLDDVLAQDLPTYLNNFIIKINELADSIRHTYLEAL,not soluble
5,MGSDKIHHHHHHEPVSSISDANYWKSPDLFKAFNIGLHGLLRSQSSYNIFVLGEPRSDIYGDQPFGGEATQGVERFSYNTINAEFTGISNFANFYTTLNQINLMIRRTNETDLLGEAEKNYYLGQAYGLRAYIYFHLLRSWGDVIITTEPTLGSELDISHLDKAASPASEVMDLIKKDIDASEKAFGGDYSYKQGKCYWSKPATLMLKGEVYLWSGRQMGGGTGDYTVAKTALQDLQQNGNLKLQEKFTDVFSFNNKENSEMIFALHSGKEDDFMMWRDYNWRNNMVPQREYMAGYCDETGTPFLEIPGYNLQGLMRYQVKKDHYLKSFREGDTRLKGTLKAVYKKHEDGTLEYIAPIQYKFQGTTLEGSNERSWYDDYPIYRYADALLLLAEAKALLGEDPSTEINAVRERAYGSEYFNAHKNEVAYPNDKGSFYNDNPFEAGDENVMEAILKERLREFFFEGKRWYDLRRFGKDYVLKYTTAQESRLLWPINEGALTNNPALKQTPGY,not soluble
6,MTISRTQQIQQLEQEWTSPRWKNITRPYSAEDVIKLRGSVNPECTFAQNGAKKLWELLHGGSRKGYINCLGALTGGQALQQAKAGVEAIYMSGWQVAADANTASSMYPDQSLYPVDSVPAVVKRINNSFRRADQIQWSNNIEPGSKGYTDYFLPIVADAEAGFGGVLNAFELMKAMIEAGAAGVHFEDQLAAVKKCGHMGGKVLVPTQEAIQKLVAARLAADVLGVPTLLIARTDADAADLLTSDCDPYDREFITGDRTAEGFFRTRAGIEQAISRGLAYAPYADLVWCETSTPDLALAKRFADAVHAQFPGKLLAYNCSPSFNWKKNLTDQQIASFQDELSAMGYKYQFITLAGIHSMWFNMFDLAHAYAQGEGMKHYVEKVQQPEFASVDRGYTFASHQQEVGTGYFDKVTNIIQGGASSVTALTGSTEEQQF,soluble
7,MTVKAVFFDIDGTLLNDRKNIQKTTQKAIQQLKKQGIMVGLATGRGPGFVQPFLENFGLDFAVTYNGQYILTRDKVLYQNQLPKSMIYKVIRYANEKKREISLGTASGLAGSRIIDMGTSPFGQVISSFVPKSWARTVEGSFKHLIRRIKPQSFRNLVTIMREPIYQVVLVASQAETKKIQEKFPHIKITRSSPYSLDLISVDQSKIKGIERLGEMFGFDLSEVMAFGDSDNDLEMLSGVGIGIAMGNAETVVKDGAHFTTDSNNNDGISKALAHYGLIH,not soluble
8,MTDPSSSPIRPDMVEAARKFMLTPKVKETPFEEQRQFLLGKGVSEAEILEARASIPPEQLRSQIGTENMIPIGGHPQMMIAPKQNGIVSFAQSAVVLGSISYAGYRFVRSYVLPRFFDIPDPATEEIRQLQSQVDDLQNSIKFIMDSVSQTTQQLATQQSEISRALYSVANRDADLNRVESGISTIKSLLLSQHNFAPIVTPSVTSSIPSWQQSATPTSATSITTTTTSEAASGYATPPANFKESSLADELADIENIE,not soluble
9,MFDPKMLSVEFRNGITDEKPIEGRKYTLTHNDDTGELFLTVALAYAYDKINSSARDEVFGVWKRGNNRFILKIYLYVDGNQGREEAIKRDRIFRKELPLALAAIAYGDRKFLDDNDDLLNSNIIVRFISAYEELNKIENYGTLKDYLEHHHHHH,soluble
10,MKFEDLLATNKQVQFAHAATQHYKSVKTPDFLEKDPHHKKFHNADGLNQQGSSTPSTATDANAASTASTHTNTTTFKRHIVAVDDISKMNYEMIKNSPGNVITNANQDEIDISTLKTRLYKDNLYAMNDNFLQAVNDQIVTLNAAEQDQETEDPDLSDDEKIDILTKIQENLLEEYQKLSQKERKWFILKELLLDANVELDLFSNRGRKASHPIAFGAVAIPTNVNANSLAFNRTKRRKINKNGLLENIL,soluble
11,MDPKFQRVALSDGHFIPVLGFGTYAPEEVPKSKAMEATKIAIDAGFRHIDSAYFYKNEKEVGLAIRSKIADGTVKREDIFYTSKLWCTFHRPELVRPSLEDSLKNLQLDYVDLYIIHFPTALKPGVEIIPTDEHGKAIFDTVDICATWEAMEKCKDAGLAKSIGVSNFNRRQLEMILNKPGLKYKPVCNQVECHPYLNQGKLLEFCKSKGIVLVAYSALGSHREPEWVDQSAPVLLEDPLIGALAKKHQQTPALIALRYQLQRGIVVLAKSFTEKRIKENIQVFEFQLPSEDMKVIDSLNRNFRYVTADFAIGHPNYPFSDEY,soluble
12,MGSDKIHHHHHHMTSVEAFRGLYYPNKIGRLCFLSLEEVMGQNGVKALLRLADLQQYIDAYPPNDLKREFPFEAISKYSVALGTMYGPRGARGLELRAGRVAFSLGLKEFGPLLGMADLALKLMPITMKLKIVLNATAQTFDRFSDQSSHVEEERGRFVYHITRCSNCITRPEPGPVFYIARGILEEATAWVSGGRRFAVEQLSCMGQGNCSSCAFAIGKDPLE,not soluble
13,LVERDSFVNALRESERRYRNIIETASEGILIIDSEVRISYANKKMTDMLGCPLEEVTGRKMCDFVSEESKDIVKLNQKRRRQGINDSYELKLVCKDGSSLWALVNAKSLFDKDGKFMGSISLLTDIT,not soluble
14,MGSDKIHHHHHHMIMLEKPTCRPNNPNFSSGPCSKRPGWTLEVLKNALVGRSHRSREAALRLAEIVDLTREVLEVPSDYRIGIVPASDTGAVEMSLWSLLGERGVDMAAWESFGSGWITDVVEKLKLSDVRRFEAPYGELPDLTQMDFDRDVVFTWNGTTSGVRIPNADFIPERRAGLTICDATSAAFAQNLDFSKLDVVTFSWQKVLGGEAAHGMLILSPRAVERLESYVPTWPMPQIFCLTKDGKLNENIFKGVTINTPSLLCIEDFLDALKWAKAQGGLHALMARVEKNFAVLDAFVRKTPWLEYLAKDPQVRSNTSVCLDIVDPVVTALDTEKRVSFIKAIVNRLDEEEAAYDIGSYRDAPPGLRIWTGITIEASDLEILTSWLEWAFQVEKAQL,not soluble
15,MSDFRLKVFLSVAKNLSFTKASQELFVSQPAITKHIQELETCYQVRLFDRQGNKISLTEAGKLLQEHSEKILEDYKRLEYEMHLLHNEYIGDLKLGASTTISQYVLPPLLANFIAKFPQVNLSLLNGNSREIEAALQEHRIDLGLVEGICRLPNLRYTTFLQDELVAVVHTGSKLSLPDEITPEDLSRIPLVLRERGSGTLDVFERALSEHNMKLSSLNVLLYLGSTESIKLFLEHTDCIGIVSIRSISRELLSGTFRVIEIKGMPMLREFCFAQPQGQESGLSQVLMQFAMHHNKKL,not soluble
16,MVKETKLYDLLGVSPSANEQELKKGYRKAALKYHPDKPTGDTEKFKEISEAFEILNDPQKREIYDQYGLEAARSGGPSFGPGGPGGAGGAGGFPGGAGGFSGGHAFSNEDAFNIFSQFFGGSSPFGGADDSGFSFSSYPSGGGAGMGGMPGGMGGMHGGMGGMPGGFRSASSSPTYPEEETVQVNLPVSLEDLFVGKKKSFKIGRKGPHGASEKTQIDIQLKPGWKAGTKITYKNQGDYNPQTGRRKTLQFVIQEKSHPNFKRDGDDLIYTLPLSFKESLLGFSKTIQTIDGRTLPLSRVQPVQPSQTSTYPGQGMPTPKNPSQRGNLIVKYKVDYPISLNDAQKRAIDENF,not soluble
17,NTEEKFVRAEEKAKRSKMLIDMKSEQYNMITEKIEKTRKSRHDIHHHINVVYQLAKENKIEQLIEYLEEYNKIYSTKEPMVYCNNSTVDAILNHYILLAKDNGIEVHLNVALPEELKIRDTDLCIVIGNLLENAIEASEKEENKRIKLRINRSNEYICMLVSNLYNGEIKKGHSGYYSRKREFKDTGIGLSSVSAVVEKYDGRMEVDHTNGEFNVFIMMANISSNLT,not soluble
18,SADCILVNSQFTAAVFKETFKSLSHIDPDVLYPSLNVTSFDSVVPEKLDDLVPKGKKFLLLSINRYERKKNLTLALEALVQLRGRLTSQDWERVHLIVAGGYDERVLENVEHYQELKKMVQQSDLGQYVTFLRSFSDKQKISLLHSCTCVLYTPSNEHFGIVPLEAMYMQCPVIAVNSGGPLESIDHSVTGFLCEPDPVHFSEAIEKFIREPSLKATMGLAGRARVKEKFSPEAFTEQLYRYVTKLLV,soluble
19,MTTSDSRSFMYRLLKFISRQPIQLSRLFARMLAGLVNTLKLTKTSRTIQLNLKITLPYLNDQQRERIIQNAIRNELTSYMEFFSIWGSSNQKNISRIHHVEGADFFHQAIAENKGIVLIVPHFGTWEIMNAWCAQYTDMTILYKPVKDKDADRFVREARSREQAKLVPTDESGVRQIFKALKQGGTTVILPDHTPNVGGEMVDYFGIPLASSNLSAKLIQKTKAKALFLYAIRNENHGFDMFIEPMDPAIYQGTDHDGTLVIHHAIEDLIRKYPDHYHWSYKRFKA,not soluble
20,MPALDLIRPSVTAMRVIASVNAEFARELKLPPHIRSLGLISADSDDVTYIAADEATKQAMVEVVYGRSLYAGAAHGPSPTAGEVLIMLGGPNPAEVRAGLDAMVANIENGAAFQWANDAENTAFLAHVVSRTGSYLSSTAGITLGDPMAYLVAPPLEATYGIDAALKSADVQLVTYVPPPSETNYSAAFLTGSQAACKAACNAFTDAVLEIARNPIQRA,not soluble
21,MGSDKIHHHHHHLDFRLLRYFVAVAEELHLARAAERLGIEQSPVSRAMRDLESQLGVQLFDRSTRLTRLTWAGQVFLGECRRVMATVEQAVKSAKAAAQGYQGHLRIAICDSLAQPRIATLLARSREEEPELEIRVFELPFAQQLKMLHDDLLDIGFALSNAVHDGLVAEPVWTDPLSVIVPARHPLLAHVQVPLPEALKFPLVLCHPESGSGCRHQIQALLQDAGTPLKLVDEVTSLGVMLTLVGAGYGIGFAIASQVQTLQRPDISIRPLAGTPPMLSTYLLRRRGEPSEPMRRFIERVKDGAAPVDDEPVL,not soluble
